Measurements: patent publication US20230121433A1

Assays:
Experiment in all cases: cell-based or functional assay
CSR 2DH.2TF2z WT = target: CSR 2DH.2TF2z WT
CSR 01 CD2.DH.z = target: CSR 01 CD2.DH.z
CSR 2DH.TF2z = target: CSR 2DH.TF2z
CSR 82DH.2TF2z WT = target: CSR 82DH.2TF2z WT
CSR 82DH.TF2z = target: CSR 82DH.TF2z
Chain of CSR 82DH.TF2z (chain, as listed by the source): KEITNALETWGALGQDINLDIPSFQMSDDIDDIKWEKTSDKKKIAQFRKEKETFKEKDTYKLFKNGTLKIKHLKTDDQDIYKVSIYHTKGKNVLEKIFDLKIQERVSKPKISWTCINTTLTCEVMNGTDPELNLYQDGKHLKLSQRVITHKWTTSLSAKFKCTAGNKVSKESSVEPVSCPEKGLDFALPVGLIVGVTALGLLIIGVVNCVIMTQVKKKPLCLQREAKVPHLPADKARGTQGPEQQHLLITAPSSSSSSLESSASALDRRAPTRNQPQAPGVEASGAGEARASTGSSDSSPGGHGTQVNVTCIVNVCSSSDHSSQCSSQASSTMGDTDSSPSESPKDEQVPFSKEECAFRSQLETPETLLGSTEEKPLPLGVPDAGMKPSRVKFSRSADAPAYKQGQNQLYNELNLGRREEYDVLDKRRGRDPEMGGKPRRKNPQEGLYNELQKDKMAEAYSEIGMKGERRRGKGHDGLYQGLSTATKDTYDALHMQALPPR

Chain of CSR 01 CD2.DH.z (chain, as listed by the source): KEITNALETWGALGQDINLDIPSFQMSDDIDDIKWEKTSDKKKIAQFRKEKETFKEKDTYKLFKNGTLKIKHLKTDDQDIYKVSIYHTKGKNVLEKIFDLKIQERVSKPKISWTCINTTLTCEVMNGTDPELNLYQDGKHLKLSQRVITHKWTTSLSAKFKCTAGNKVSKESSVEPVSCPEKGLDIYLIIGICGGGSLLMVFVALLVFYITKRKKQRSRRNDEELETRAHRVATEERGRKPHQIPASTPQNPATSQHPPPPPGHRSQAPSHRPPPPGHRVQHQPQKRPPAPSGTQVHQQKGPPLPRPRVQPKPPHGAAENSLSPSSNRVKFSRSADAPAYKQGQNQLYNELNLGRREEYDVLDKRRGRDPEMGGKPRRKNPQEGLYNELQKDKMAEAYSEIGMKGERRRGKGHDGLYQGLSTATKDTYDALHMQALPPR
Chain of CSR 82DH.2TF2z WT (chain, as listed by the source): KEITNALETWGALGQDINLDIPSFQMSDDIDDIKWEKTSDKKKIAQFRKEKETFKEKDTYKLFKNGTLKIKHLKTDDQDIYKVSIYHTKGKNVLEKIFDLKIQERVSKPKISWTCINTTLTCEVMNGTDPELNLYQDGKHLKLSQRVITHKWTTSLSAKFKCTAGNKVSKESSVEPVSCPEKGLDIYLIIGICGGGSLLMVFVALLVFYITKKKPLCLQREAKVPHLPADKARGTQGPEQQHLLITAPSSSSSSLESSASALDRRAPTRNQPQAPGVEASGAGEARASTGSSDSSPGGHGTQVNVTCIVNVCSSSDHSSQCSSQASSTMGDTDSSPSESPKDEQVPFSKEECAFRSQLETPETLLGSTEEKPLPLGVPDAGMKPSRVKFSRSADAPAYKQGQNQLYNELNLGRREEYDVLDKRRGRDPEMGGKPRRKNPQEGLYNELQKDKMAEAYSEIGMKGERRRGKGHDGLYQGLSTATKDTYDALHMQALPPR
Chain of CSR 2DH.TF2z (chain, as listed by the source): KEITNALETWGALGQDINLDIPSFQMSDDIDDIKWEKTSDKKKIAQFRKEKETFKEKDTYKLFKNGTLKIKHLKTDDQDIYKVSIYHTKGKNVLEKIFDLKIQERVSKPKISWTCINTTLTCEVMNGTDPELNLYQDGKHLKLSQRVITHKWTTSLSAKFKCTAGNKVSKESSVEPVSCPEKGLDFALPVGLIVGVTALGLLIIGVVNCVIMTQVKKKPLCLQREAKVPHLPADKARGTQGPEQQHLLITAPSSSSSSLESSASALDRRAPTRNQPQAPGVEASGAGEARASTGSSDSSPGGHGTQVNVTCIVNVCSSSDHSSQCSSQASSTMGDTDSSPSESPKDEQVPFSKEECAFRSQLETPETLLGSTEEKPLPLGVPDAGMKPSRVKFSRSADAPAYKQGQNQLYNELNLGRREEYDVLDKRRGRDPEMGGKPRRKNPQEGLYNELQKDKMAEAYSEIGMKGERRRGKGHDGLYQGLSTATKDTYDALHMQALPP
Chain of CSR 2DH.2TF2z WT (chain, as listed by the source): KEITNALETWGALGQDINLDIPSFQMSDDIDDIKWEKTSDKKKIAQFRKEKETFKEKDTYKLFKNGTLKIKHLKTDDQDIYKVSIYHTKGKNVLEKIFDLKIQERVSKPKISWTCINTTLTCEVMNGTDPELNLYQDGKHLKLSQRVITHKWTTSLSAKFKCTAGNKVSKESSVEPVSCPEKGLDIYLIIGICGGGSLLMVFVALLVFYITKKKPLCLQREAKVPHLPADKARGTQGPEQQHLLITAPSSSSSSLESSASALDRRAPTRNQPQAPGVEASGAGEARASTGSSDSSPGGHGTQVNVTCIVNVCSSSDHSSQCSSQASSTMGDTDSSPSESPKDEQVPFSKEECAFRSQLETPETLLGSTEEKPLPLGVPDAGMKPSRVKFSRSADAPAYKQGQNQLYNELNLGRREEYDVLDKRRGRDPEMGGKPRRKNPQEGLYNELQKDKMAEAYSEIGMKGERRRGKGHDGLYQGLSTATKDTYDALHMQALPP

For “Immunocult Human CD2 T cell activator (StemCell Technologies)”, the pSTAT5 Expression post activation in Treg cells (% of live cells), +16 hours, Donor 4 (CSR 2DH.2TF2z WT) was 13.9%, the pSTAT5 Expression post activation in Treg cells (% of live cells), +16 hours, Donor 5 (% of live cells) (CSR 2DH.2TF2z WT) was 10.3 and the pSTAT5 Expression post activation in Treg cells (% of live cells), +24 hours, Donor 4 (% of live cells) (CSR 2DH.2TF2z WT) was 15.8. The pSTAT5 Expression post activation in Treg cells (% of live cells), +24 hours, Donor 5 (% of live cells) (CSR 2DH.2TF2z WT) was 13.5, the pSTAT5 Expression post activation in pan T cells (% of live cells), +4 hours, Donor 1 (CSR 2DH.2TF2z WT) was 4.73% and the pSTAT5 Expression post activation in pan T cells (% of live cells), +4 hours, Donor 2 (% of live cells) (CSR 2DH.2TF2z WT) was 2.78. It also gave a pSTAT5 Expression post activation in pan T cells (% of live cells), +24 hours, Donor 1 (% of live cells) (CSR 2DH.2TF2z WT) of 8.34, a pSTAT5 Expression post activation in pan T cells (% of live cells), +24 hours, Donor 2 (% of live cells) (CSR 2DH.2TF2z WT) of 15.8 and a pSTAT5 Expression post activation in Treg cells (% of live cells), +16 hours, Donor 4 (CSR 01 CD2.DH.z) of 7.1%. The pSTAT5 Expression post activation in Treg cells (% of live cells), +16 hours, Donor 5 (CSR 01 CD2.DH.z) was 10.3%, the pSTAT5 Expression post activation in Treg cells (% of live cells), +24 hours, Donor 4 (CSR 01 CD2.DH.z) was 10.5% and the pSTAT5 Expression post activation in Treg cells (% of live cells), +24 hours, Donor 5 (CSR 01 CD2.DH.z) was 11.1%. It also gave a pSTAT5 Expression post activation in pan T cells (% of live cells), +4 hours, Donor 1 (% of live cells) (CSR 01 CD2.DH.z) of 3.52, a pSTAT5 Expression post activation in pan T cells (% of live cells), +4 hours, Donor 2 (% of live cells) (CSR 01 CD2.DH.z) of 41.1 and a pSTAT5 Expression post activation in pan T cells (% of live cells), +24 hours, Donor 1 (% of live cells) (CSR 01 CD2.DH.z) of 17.7. It also gave a pSTAT5 Expression post activation in pan T cells (% of live cells), +24 hours, Donor 2 (CSR 01 CD2.DH.z) of 47.9%, a pSTAT5 Expression post activation in Treg cells (% of live cells), +16 hours, Donor 4 (% of live cells) (CSR 2DH.TF2z) of 9.24 and a pSTAT5 Expression post activation in Treg cells (% of live cells), +24 hours, Donor 4 (% of live cells) (CSR 2DH.TF2z) of 8.64. It also gave a pSTAT5 Expression post activation in pan T cells (% of live cells), +4 hours, Donor 1 (% of live cells) (CSR 2DH.TF2z) of 5.43, a pSTAT5 Expression post activation in pan T cells (% of live cells), +4 hours, Donor 2 (CSR 2DH.TF2z) of 4.2% and a pSTAT5 Expression post activation in pan T cells (% of live cells), +24 hours, Donor 1 (CSR 2DH.TF2z) of 5.67%. It also gave a pSTAT5 Expression post activation in pan T cells (% of live cells), +24 hours, Donor 2 (CSR 2DH.TF2z) of 5.17%, a pSTAT5 Expression post activation in Treg cells (% of live cells), +16 hours, Donor 4 (CSR 82DH.2TF2z WT) of 13.3% and a pSTAT5 Expression post activation in Treg cells (% of live cells), +16 hours, Donor 5 (% of live cells) (CSR 82DH.2TF2z WT) of 7.45. It also gave a pSTAT5 Expression post activation in Treg cells (% of live cells), +24 hours, Donor 4 (CSR 82DH.2TF2z WT) of 13.6%, a pSTAT5 Expression post activation in Treg cells (% of live cells), +24 hours, Donor 5 (CSR 82DH.2TF2z WT) of 9.16% and a pSTAT5 Expression post activation in pan T cells (% of live cells), +4 hours, Donor 1 (CSR 82DH.2TF2z WT) of 3.24%. For the same substance, the pSTAT5 Expression post activation in pan T cells (% of live cells), +4 hours, Donor 2 (% of live cells) (CSR 82DH.2TF2z WT) was 11, the pSTAT5 Expression post activation in pan T cells (% of live cells), +24 hours, Donor 1 (% of live cells) (CSR 82DH.2TF2z WT) was 5.5 and the pSTAT5 Expression post activation in pan T cells (% of live cells), +24 hours, Donor 2 (CSR 82DH.2TF2z WT) was 6.36%. The pSTAT5 Expression post activation in Treg cells (% of live cells), +16 hours, Donor 4 (% of live cells) (CSR 82DH.TF2z) was 10.5, the pSTAT5 Expression post activation in Treg cells (% of live cells), +24 hours, Donor 4 (% of live cells) (CSR 82DH.TF2z) was 11.6 and the pSTAT5 Expression post activation in pan T cells (% of live cells), +4 hours, Donor 1 (% of live cells) (CSR 82DH.TF2z) was 5.49. The pSTAT5 Expression post activation in pan T cells (% of live cells), +4 hours, Donor 2 (% of live cells) (CSR 82DH.TF2z) was 5.09, the pSTAT5 Expression post activation in pan T cells (% of live cells), +24 hours, Donor 1 (% of live cells) (CSR 82DH.TF2z) was 6.16 and the pSTAT5 Expression post activation in pan T cells (% of live cells), +24 hours, Donor 2 (% of live cells) (CSR 82DH.TF2z) was 10.1.
